Read-outs that look alike come from different tables or passages of the source.

The source of these data is paper PMC4604023.

Data set [1] addresses nucleocapsid protein N (Rift Valley fever virus, UniProt P21700 1-245). Put plainly: filter binding.
Target sequence in this assay (P21700 whole entry): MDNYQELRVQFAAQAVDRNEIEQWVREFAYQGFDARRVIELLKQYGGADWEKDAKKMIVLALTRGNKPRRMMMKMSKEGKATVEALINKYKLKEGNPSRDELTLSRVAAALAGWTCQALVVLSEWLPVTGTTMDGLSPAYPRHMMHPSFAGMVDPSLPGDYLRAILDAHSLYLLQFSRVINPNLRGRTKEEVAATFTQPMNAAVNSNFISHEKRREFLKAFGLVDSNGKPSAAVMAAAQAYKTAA
For data set [2] the target is unchanged. The data set is described as follows: filter binding. This is another data set of the same source.
Target sequence in this assay (P21700 whole entry): as above

B1: AS2 (AS-2) (structured_RNA)
RNA: GGAGUAUCUGUCGGCAUCACGCUUGGAUGUGCAAGGCUCUUUAUCUCUAUUAUGCAAG
For the molecule B1, in data set [1], the binding result is listed as “binds”.

B2: MBE87 (structured_RNA)
RNA: GGCAUUACGGCCGGGAGCCAGUAUUACUGAUUGAUGAUUCUGUGGGCGUCUUCUAG
Turning to B2, in data set [2], the binding result is “binds”.

B3: AS1 (AS-1) (structured_RNA)
RNA: GGUCGACAGGCUAGGCCGUCUAAAGCUGAUUGCUCCCGGGGAAUAAUUAUUGACAGCU
In the case of B3, the binding result in data set [1] was “binds”.

B4: AS4 (AS-4) (structured_RNA)
RNA: GGGGCGCGUUCUAAACAACGAUUGCCGACAAGACGAUUUCUGGGUCAAACUUUAUUCG
For the molecule B4, in data set [1], the binding result is “binds”.
